According to patent US20220064286A1 (Genentech, published 2022):
Changes are numbered by the printed parent chain. Names and notes keep the numbering of the source. Where two headings read alike, the source gives them in different places. One block for each binder: values may come before it.

What was measured:
[1] = target: T1, full-length human TIGIT on CHO cells (human, UniProt Q495A1 22-244); test: FACS, CHO cells expressing TIGIT
T1 construct: also called CHO-hTIGIT; hu TIGIT
T1 sequence: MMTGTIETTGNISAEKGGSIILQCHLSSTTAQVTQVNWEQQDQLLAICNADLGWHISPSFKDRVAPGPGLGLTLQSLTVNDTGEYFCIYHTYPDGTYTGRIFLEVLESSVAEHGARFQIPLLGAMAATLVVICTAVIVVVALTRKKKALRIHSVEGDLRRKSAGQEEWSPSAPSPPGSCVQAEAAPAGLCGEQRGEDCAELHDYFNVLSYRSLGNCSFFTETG

[2] = target: T1, full-length human TIGIT on CHO cells; test: FACS, PVR-Fc on CHO-TIGIT cells; competitor PVR-Fc
Method: (§1) These studies were further validated in CHO-TIGIT PVR blocking experiments in which TIGIT-expressing CHO cells were incubated with labeled PVR-Fc fusion protein in the presence of anti-TIGIT antibody or an human IgG1 control (FIG. 4A).

[3] = target: T2, cynomolgus monkey (cyno) TIGIT protein (cynomolgus monkey, UniProt A0A7N9I9V4 89-209); test: SPR, bivalent affinity
T2 sequence (A0A7N9I9V4 entry or part of it): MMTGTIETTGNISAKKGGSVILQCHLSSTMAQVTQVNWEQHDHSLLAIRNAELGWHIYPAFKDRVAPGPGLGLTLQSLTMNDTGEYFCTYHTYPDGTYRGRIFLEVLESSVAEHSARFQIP

human TIGIT protein [4] = target: T3, human TIGIT protein (human, UniProt Q495A1 22-141, limits assumed); test: SPR, bivalent affinity
T3 construct: Recombinant protein (Genentech) used in ELISA screening and as SPR analyte; also called TIGIT antigen
T3 sequence: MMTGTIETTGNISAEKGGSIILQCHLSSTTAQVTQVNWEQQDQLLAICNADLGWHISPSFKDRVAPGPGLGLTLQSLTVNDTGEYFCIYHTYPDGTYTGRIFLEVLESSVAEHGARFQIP

[5] = target: T2, cynomolgus monkey (cyno) TIGIT protein; test: SPR, captured mAb
Method: (§2) Briefly, a series S CM5 biosensor chip was activated with N-ethyl-N′-(3-dimethylaminopropyl)-carbodiimide hydrochloride (EDC) and N-hydroxysuccinimide (NHS) reagents according to the supplier's (GE Healthcare Biosciences, Piscataway, N.J.) instructions, and a human antibody capture kit was applied to couple goat anti-human Fc IgGs in order to achieve approximately 10,000 response units (RU) on each flow cell, followed by blocking un-reacted groups with 1M ethanolamine.
(§3) (flow rate: 30 μl/min) with no regeneration between injections. The sensorgrams were recorded and evaluated by BIAcore™ T200 Evaluation Software (version 2.0) after subtraction of reference cell signal. Association rates (kₒₙ) and dissociation rates (koff) were calculated using a simple one-to-one Langmuir binding model. The equilibrium dissociation constant (KD) was calculated as the ratio koff/kₒₙ.
(§4) The first humanized versions, h6B2, L1H1, h10A5.L1H1, h7E7, L1H1, and h15C8.L1H1, which contain both rat CDRs and framework residues at Vernier positions, and the fully humanized versions, h6B2.L2H5, h10A5.L4H4, h7E7.L5H9, and h15C8.L5H9, which contain only rat CDRs were subject to BIAcore affinity measurement by comparison with original rat antibodies, rat6B2, rat10A5, rat7E7 and rat 15C8. For binding affinity determinations of TIGIT antibodies against human TIGIT, cynomolgus monkey TIGIT and human alanine-scanned TIGIT mutants by single-cycle kinetics, Surface Plasmon Resonance (SRP) measurement with a BIACORE™-T200 instrument was used, as described above.

human TIGIT protein [6] = target: T3, human TIGIT protein; test: SPR, captured mAb
Method: as §2, §3, §4

[7] = target: T4, cynomolgus TIGIT on CHO cells (cynomolgus monkey, UniProt A0A7N9I9V4 89-312); test: FACS blocking assay: labelled PVR-Fc (blocked ligand) on CHO cells expressing cyno TIGIT
T4 construct: whole, on cells; also called CHO-cyTIGIT; cyTIGIT
T4 sequence (A0A7N9I9V4 entry or part of it): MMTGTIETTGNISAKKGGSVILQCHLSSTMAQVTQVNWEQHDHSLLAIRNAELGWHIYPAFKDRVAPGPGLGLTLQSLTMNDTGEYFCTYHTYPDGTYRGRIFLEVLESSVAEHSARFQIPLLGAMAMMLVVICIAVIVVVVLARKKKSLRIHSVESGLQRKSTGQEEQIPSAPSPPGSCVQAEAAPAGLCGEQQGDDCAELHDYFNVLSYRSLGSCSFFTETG
Method: as §1

[8] = target: T4, cynomolgus TIGIT on CHO cells; test: FACS on CHO cells expressing cyno TIGIT, FITC anti-hIgG detection
Method: Additional in vitro binding studies of the OMT- and SD-derived anti-TIGIT antibody clones were conducted. The OMT- and SD-derived anti-TIGIT clones were tested for binding to human and cyno TIGIT expressed on the surface of CHO cells by FACS analysis. CHO cells were transfected with full-length human TIGIT (CHO-hTIGIT) or cynomologous TIGIT (CHO-cyTIGIT). The TIGIT-expressing CHO cells were incubated with each anti-TIGIT antibody at the indicated concentrations and then detected via a FITC-labeled anti-hIgG antibody (see FIG. 1A) using standard methods. The results, shown in Table 6 and FIGS. 1B-1E, corroborate the results from the BIACORE™ analysis, described above.

[9] = target: T2, cynomolgus monkey (cyno) TIGIT protein; test: SPR, monovalent affinity
human TIGIT protein [10] = target: T3, human TIGIT protein; test: SPR, monovalent affinity
[11] = target: T5, human TIGIT on activated human primary T cells (human, UniProt Q495A1 22-244); test: FACS, activated human T cells
T5 construct: also called Human T cell
T5 sequence: T1 sequence
Method: The OMT- and SD-derived anti-TIGIT clones were also tested for binding to human primary T cells by FACS analysis. Human PBMC were activated for with plate-bound anti-CD3 (5 μg/ml) and soluble anti-CD28 (2 μg/ml) for 2 days as described in Yu et al. Nature Immunology. 10: 48-57, 2009, which is incorporated herein by reference in its entirety. Cells were then washed and incubated with incubated with each anti-TIGIT antibody at the indicated concentrations and then detected via a FITC-labeled anti-hIgG antibody. Cells were also stained with anti-CD4, anti-CD8, and anti-CD25 (BD bioscience). Human CD4+(CD25+CD4+) and human CD8+(CD25+CD8+) T cells were assessed for binding by the anti-TIGIT clones by FACS. All samples were acquired on LSR-II or LSR-Fortessa instruments (BD Biosciences) and analyzed using FlowJo software (Treestar).

[12] = target: T2, cynomolgus monkey (cyno) TIGIT protein; test: SPR, captured mAb; remark: listed apart in the source
Source text: (§5) To prevent unwanted pyroglutamate formation for clones 4.1A4, 4.1 D3, and 7.4A3 (also referred to as 1A4, 1 D3, and 4A3, respectively) and to resolve the issue of unpaired cysteine residues for clones 4.1A4 and 7.4A3, the following optimized anti-TIGIT antibody variants were generated: 4.1A4.C96S.Q1E, 4.1A4.C96Y.Q1E, 4.1 D3.Q1E, 7.4A3.C96S.Q1E, and 7.4A3.C96Y.Q1E (also referred to as 1A4.C96S.Q1E, 1A4.C96Y.Q1E, 1 D3.Q1E, 4A3.C96S.Q1E, and 4A3.C96Y.Q1E, respectively). As described below in Table 2, the affinities of these five optimized variants for human and cynomolgus monkey (cyno) TIGIT were then determined by Surface Plasmon Resonance (SRP) (BIACORE™ analysis) and compared to that of their respective parental clones.
as §2, §3

human TIGIT protein [13] = target: T3, human TIGIT protein; test: SPR, captured mAb; remark: listed apart in the source
Source text: as §5, §2, §3

[14] = target: T4, cynomolgus TIGIT on CHO cells; test: FACS blocking assay: labelled PVR-Fc (blocked ligand; text: cyPVR, scheme of FIG. 4A prints hPVR.Fc) on CHO cells expressing cyno TIGIT
Method: as §1

hTIGIT mutant H76A [15] = target: T6, hTIGIT mutant H76A (human, UniProt Q495A1); test: SPR (BIACORE) KD normalized to WT, N=2
T6 sequence (TIGIT, looked up): T3 sequence with H55A

hTIGIT mutant H76A [16] = target: T6, hTIGIT mutant H76A; test: SPR (BIACORE), N=2

EC50 [1]: 0.1 nM
IC50 [2]: 0.04 nM
Kd [3]: ≤ 0.009 nM
Kd (human TIGIT protein [4]): ≤ 0.004 nM
Kd [5]: 0.07 nM
koff [5]: 2.7e-05 s⁻¹
kon [5]: 399000 M⁻¹ s⁻¹
Kd (human TIGIT protein [6]): 0.03 nM
koff (human TIGIT protein [6]): 1.8e-05 s⁻¹
kon (human TIGIT protein [6]): 568000 M⁻¹ s⁻¹
IC50 (read off the curve) [7]: ~0.3 nM
EC50 (read off the curve) [8]: ~0.3 nM
Kd [9]: 0.067 nM
Kd (human TIGIT protein [10]): ≤ 0.018 nM
EC50 [11]: 0.11 nM
B1: rat7E7 (antibody, V domains shown)
VH: EVQLQQSGPELQRPGASVKLSCKATGYTFTEYSIYWVKQRPKQSLEIIGRIDPKNGRTYYVDKFKNRATLTADTSSNTAYMQLSSLTSEDTATYFCTRIYGFYFDFWGQGVMVTASS
VL: NIHLTQSPSLLSASVGDRVTLSCKGSQNVNKYLVWYQQKLGEAPKLLIYNTDNLQSGIPSRFSGSGSGTDYTLTISSLQPEDAATYFCYQYNNGFTFGSGTKLEIK
notes: SD rat-derived; rat V domains as FR/HVR pieces; also called 1.7E7; Chimeric 1.7E7

Kd [3]: ≤ 0.05 nM
Kd (human TIGIT protein [4]): 0.098 nM
Kd [12]: 2.09 nM
koff [12]: 0.000699 s⁻¹
kon [12]: 334000 M⁻¹ s⁻¹
Kd (human TIGIT protein [13]): 3.44 nM
koff (human TIGIT protein [13]): 0.00104 s⁻¹
kon (human TIGIT protein [13]): 302000 M⁻¹ s⁻¹
EC50 (read off the curve) [8]: ~1 nM
Kd [9]: 1.6 nM
Kd (human TIGIT protein [10]): 3.6 nM
IC50 (read off the curve) [14]: ~0.3 nM
B2: 7.4A3 (antibody, V domains shown)
VH: QVQLVQSGSDLKKPGASVRVSCKASGYTFTSYPMNWVRQAPGHGLEWMGWINTNTGNPTYVQGFTGRFVFSLDTSVNTAYLQISSLKAEDTAVYFCARTGGHTYDSYAFDVWGQGTMVTVSS
VL: DIQLTQSPTFLSASVGDRVTITCRASQVISSSLAWYQQNPGKAPKLLIYAASTLQSGVPSRFSGSGSGTEFTLTISSLQPEDFVTYYCQHLHGYPCNFGQGTKVEIK
notes: OMT rat-derived human antibody; also called 7.4A3.Q1.C96

Binding affinity drop vs. WT (hTIGIT mutant H76A [15]): 2.5 fold
Kd (hTIGIT mutant H76A [16]): 1 nM
Kd [5]: 0.31 nM
koff [5]: 0.000182 s⁻¹
kon [5]: 591000 M⁻¹ s⁻¹
B3: h7E7.L5aH9a (antibody, V domains shown)
VH: EVQLVQSGAEVKKPGASVKVSCKASGYTFTEYSIYWVRQAPGQRLEIMGRIDPKNGRTYYVDKFKNRVTITRDTSASTAYMELSSLRSEDTAVYYCARIYGFYFDFWGQGTLVTVSS
VL: DIQLTQSPSFLSASVGDRVTITCKGSQNVNKYLVWYQQKPGKAPKLLIYNTDNLQSGVPSRFSGSGSGTEYTLTISSLQPEDFATYYCYQYNNGFTFGQGTKVEIK
notes: Final humanized 7E7; keeps rat VH I47 and VL Y71; FR/HVR pieces

EC50 [1]: 0.52 nM
IC50 [2]: 0.08 nM
Kd [3]: 0.091 nM
Kd (human TIGIT protein [4]): ≤ 0.027 nM
Kd [5]: 0.29 nM
koff [5]: 0.000202 s⁻¹
kon [5]: 688000 M⁻¹ s⁻¹
Kd (human TIGIT protein [6]): 0.04 nM
koff (human TIGIT protein [6]): 3.5e-05 s⁻¹
kon (human TIGIT protein [6]): 997000 M⁻¹ s⁻¹
Kd [9]: 0.29 nM
Kd (human TIGIT protein [10]): 0.035 nM
EC50 [11]: 0.09 nM
B4: rat6B2 (antibody, V domains shown)
VH: QVSLKESGPGILQPSHTLSLTCSFSGFSLSTYGMGVSWIRQPSEKGLEWLASIWWNGNTYYNPSLKSRLTVSKDASNDQAFLNVTSVDTTDTATYYCAHTGGAVITWFAYWGQGTLVTVSS
VL: NIVMTQSPKSMSISVGDRVTMNCKASQSVGKNIAWYQQKPGQSPKLLIYYASNRYTGVPDRFTGGGSGTDFTLTINTVQAEDAAFFYCQHIYNSPYPFGTGTKLEIK
notes: SD rat-derived; rat V domains as FR/HVR pieces; also called 1.6B2; Chimeric 1.6B2

Kd [12]: 12.6 nM
koff [12]: 0.0169 s⁻¹
kon [12]: 1.34e+06 M⁻¹ s⁻¹
EC50 (read off the curve) [8]: ~0.5 nM
Kd [9]: 12.6 nM
IC50 (read off the curve) [14]: ~0.09 nM
B5: 4.1A4.C96S.Q1E (antibody, V domains shown)
VH: EVQLVQSGSELKKPGASVKVSCKASGYTLTNYPMNWVRQAPGRGLEWMGWINTNTGSPAYAQDFTERFVFSLDTSVTTAYLQISSLKAEDTAVYYCARTAITSVYHFDYWGQGTLVTVSS
VL: DIQLTQSPSFLSASVGDRVTITCRASQGISSYLAWYQQKPGKAPRVLIYGATTLQSGVPSRFSGSESGTEFTLTISSLQPEDLATYYCQKLNSHPSSFGQGTKVEIK
notes: FR/HVR pieces in order; also called 4.1A4.Q1E.C96S

binding result [7]: no binding (tested: about 20 nM)
Kd [9]: > 100 nM
B6: 4.1A4.C96Y.Q1E (antibody, V domains shown)
VH: B5 VH
VL: B5 VL with S96Y
notes: FR/HVR pieces in order; also called 4.1A4.Q1E.C96Y
